Test results: patent US11994512B2, “Single-cell genomic methods to generate ex vivo cell systems that recapitulate in vivo biology with improved fidelity” (Massachusetts Institute of Technology, priority 2018, dated 2024)

B1: Q64338 (protein, UniProt Q64338 1-706, looked up)
chain: MESPTKEIEEFESNSLKHLQPEQIEKIWLRLRGLRKYKKTSQRLRSLVKQLERGEASVVDLKKNLEYAATVLESVYIDETRRLLDTEDELSDIQSDAVPSEVRDWLASTFTRQMGMMLRRSDEKPRFKSIVHAVQAGIFVERMYRRTSNMVGLSYPPAVIDALKDVDTWSFDVFSLNEASGDHALKFIFYELLTRYDLISRFKIPISALVSFVEALEVGYSKHKNPYHNLMHAADVTQTVHYLLYKTGVANWLTELEIFAIIFSAAIHDYEHTGTTNNFHIQTRSDPAILYNDRSVLENHHLSAAYRLLQEDEEMNILVNLSKDDWREFRTLVIEMVMATDMSCHFQQIKAMKTALQQPEAIEKPKALSLMLHTADISHPAKAWDLHHRWTMSLLEEFFRQGDREAELGLPFSPLCDRKSTMVAQSQVGFIDFIVEPTFTVLTDMTEKIVSPLIDESSQTGGTGQRRSSLNSINSSDAKRSGVKSSGSDGSAPINNSVIPVDYKSFKATWTEVVQINRERWRAKVPKEEKAKKEAEEKARLAAEEKQKEMEAKSQAEQGTTSKGEKKTSGEAKSQVNGTRKGDNPRGKNSKGEKAGEKQQNGDLKDGKNKADKKDHSNTGNESKKTDGTKKRSHGSPAPSTSSTSRITLPVIKPPLRHFKRPAYASSSYAPSVPKKTDDHPVRYKMLDQRIKMKKIQNISHHWNKK
modifications: full-length
B2: Q6DI86 (protein, UniProt Q6DI86 1-829, looked up)
chain: MFRLRSISLLSWRAFPLRPFSCESLITQMQKCTNEEQVFDLIETNTATLSEQQVGCAFNVLWQFQKQKTVLEKNVDHVRNHPQFLTLCSITTNHIPAMSDATLVDVLYSIKQFAVESHHPLIEALVTEAWKRLERFDTNVLSIFSTCLADQHLYFSPLMGKIADIVNRRLETIQDLRALSVLMVSISSLISPCFQERLVIRTELLFDTVNSSKVNIARRILLFLRNVKYSHYPLLERCNQVFIRNMSHLDLESISKILNLYQFLQFHSFEFVEAARGRLAEMTLPSDHPESFVRLFAALGPVARPEIKKQLKSTILLLSEELSSQQALIVLGAMEDMESRNSHLLKKIVSVLYKHLDNYKSIELLKIIQALTFLHFQSKELFMKLRELLLSRLEASVIPSEISVLVSALSMLPHPHLSETAVSRIEAVLPQCDFRELNDLVVYLMRWIQSDLVCLASTTGKQLDLLQKLDQLGRHRLQQSTNLDLLWEELKSLKGEWLHESLVEESIAALLRFMDEIDYSNIAKVASFLSRTNYLNTLLLDRIASVAIQQVEKIHPFSVLAIILPFSILNYDPPQKDEFFGACVQCCNSYLGTLDPGTLVFLGFSLAVLEYFPEDLLKKMFNIEFLARLDSQLEILPSSLSARIQFRLMELNRAVCLECPELQVPWFHDRFCQRQFNKDTGVMNGAQQQIYKMLAEVLGGHQCVKPSALSPYYHTVGFECILDKRKKPLPYESHSIAPRKSLGMHWDSRVEPRLPPEAERIAIELLDVRAFCSNIPHLKGKSAMKKRHLEILGYRVIQIPYFEWNSMAMSTKDARMDYLREHLFGEGKS
modifications: full-length
B3: Q61263 (protein, UniProt Q61263 1-540, looked up)
chain: MSLRNRLSKSGENPEQDEAQKNFMDTYRNGHITMKQLIAKKRLLAAEAEELKPLFMKEVGCHFDDFVTNLIEKSASLDNGGCALTTFSILEEMKKNHRAKDLRAPPEQGKIFISRQSLLDELFEVDHIRTIYHMFIALLILFVLSTIVVDYIDEGRLVLEFNLLAYAFGKFPTVIWTWWAMFLSTLSIPYFLFQRWAHGYSKSSHPLIYSLVHGLLFLVFQLGVLGFVPTYVVLAYTLPPASRFILILEQIRLIMKAHSFVRENIPRVLNAAKEKSSKDPLPTVNQYLYFLFAPTLIYRDNYPRTPTVRWGYVAMQFLQVFGCLFYVYYIFERLCAPLFRNIKQEPFSARVLVLCVFNSILPGVLILFLSFFAFLHCWLNAFAEMLRFGDRMFYKDWWNSTSYSNYYRTWNVVVHDWLYYYVYKDLLWFFSKRFKSAAMLAVFALSAVVHEYALAICLSYFYPVLFVLFMFFGMAFNFIVNDSRKRPIWNIMVWASLFLGYGLILCFYSQEWYARQHCPLKNPTFLDYVRPRTWTCRYVF
modifications: full-length
B4: Q64176 (protein, UniProt Q64176 1-562, looked up)
chain: MCLSALILVSLAAFTAGAGHPSSPPMVDTVQGKVLGKYISLEGFTQPVAVFLGVPFAKPPLGSLRFAPPQPAEPWSSVKNATSYPPMCFQDPVTGQIVNDLLTNRKEKIPLQFSEDCLYLNIYTPADLTKSDRLPVMVWIHGGGLVLGGASTYDGLVLSTHENVVVVVIQYRLGIWGFFSTGDEHSRGNWGHLDQVAALHWVQDNIAKFGGDPGSVTIFGESAGGESVSVLVLSPLAKNLFQRAISESGVALTAGLVKKNTRPLAEKIAVISGCKNTTSAAMVHCLRQKTEEELLGTTLKLNLFKLDLHGDSRQSHPFVPTVLDGVLLPKMPEEILAEKNFNTVPYIVGINKQEFGWILPTMMNYPPSDVKLDQMTAMSLLKKSSFLLNLPEDAIAVAIEKYLRDKDYTGRNKDQLLELIGDVVFGVPSVIVSRGHRDAGAPTYMYEFQYSPSFSSEMKPDTVVGDHGDEIYSVFGAPILRGGTSEEEINLSKMMMKFWANFARNGNPNGQGLPHWPEYDQKEGYLQIGATTQQAQKLKEKEVAFWTELLAKKQLPTEHTEL
modifications: full-length
B5: Q61391 (protein, UniProt Q61391 1-750, looked up)
chain: MGRSESQMDITDINAPKPKKKQRWTPLEISLSVLVLLLTIIAVTMIALYATYDDGICKSSDCIKSAARLIQNMDASVEPCTDFFKYACGGWLKRNVIPETSSRYSNFDILRDELEVILKDVLQEPKTEDIVAVQKAKTLYRSCINESAIDSRGGQPLLKLLPDIYGWPVASDNWDQTYGTSWTAEKSIAQLNSKYGKKVLINFFVGTDDKNSTQHIIHFDQPRLGLPSRDYYECTGIYKEACTAYVDFMISVARLIRQEQSLPIDENQLSLEMNKVMELEKEIANATTKPEDRNDPMLLYNKMTLAKLQNNFSLEVNGKSFSWSNFTNEIMSTVNINIQNEEEVVVYAPEYLTKLKPILTKYSPRDLQNLMSWRFIMDLVSSLSRNYKESRNAFRKALYGTTSETATWRRCANYVNGNMENAVGRLYVEAAFAGESKHVVEDLIAQIREVFIQTLDDLTWMDAETKKKAEEKALAIKERIGYPDDIISNENKLNNEYLELNYREDEYFENIIQNLKFSQSKQLKKLREKVDKDEWISGAAVVNAFYSSGRNQIVFPAGILQPPFFSAQQSNSLNYGGIGMVIGHEITHGFDDNGRNFNKDGDLVDWWTQQSANNFKDQSQCMVYQYGNFSWDLAGGQHLNGINTLGENIADNGGIGQAYRAYQNYVKKNGEEKLLPGLDLNHKQLFFLNFAQVWCGTYRPEYAVNSIKTDVHSPGNFRIIGTLQNSAEFADAFHCRKNSYMNPERKCRVW
modifications: full-length
B6: Q64669 (protein, UniProt Q64669 1-274, looked up)
chain: MAARRALIVLAHSEKTSFNYAMKEAAVEALKKRGWEVLESDLYAMNFNPIISRNDITGELKDSKNFQYPSESSLAYKEGRLSPDIVAEHKKLEAADLVIFQFPLQWFGVPAILKGWFERVLVAGFAYTYAAMYDNGPFQNKKTLLSITTGGSGSMYSLQGVHGDMNVILWPIQSGILRFCGFQVLEPQLVYSIGHTPPDARMQILEGWKKRLETVWEETPLYFAPSSLFDLNFQAGFLMKKEVQEEQKKNKFGLSVGHHLGKSIPADNQIKARK
modifications: full-length
B7: Q62395 (protein, UniProt Q62395 1-81, looked up)
chain: METRALWLMLLVVLVAGSSGIAADYVGLSPSQCMVPANVRVDCGYPSVTSEQCNNRGCCFDSSIPNVPWCFKPLQETECTF
modifications: full-length
B8: Q62431 (protein, UniProt Q62431 1-601, looked up)
chain: MKLQAVMETLIQRQQRARQELEARQAPPPPPPEPTGVRARTTMTDEDREPENARMHRTQMAALAAMRAAAAGLGHPSSPGGSEDGPPISGDEDTAREGTLSSPALHGSVLEGAGHAEGDRHLMDVGSDDDDTKSKWEEQELEELGEEEEEEEEEDDFEEEEEEEEGLGPPESASLGTAGLFTRKAPPAQAFRGDGGPRMLSGPERLGPGPAHPSHMASQMPPPDHGDWTFEEQFKQLYELDADPKRKEFLDDLFSFMQKRGTPVNRIPIMAKQVLDLFMLYVLVTEKGGLVEVINKKLWREITKGLNLPTSITSAAFTLRTQYMKYLYPYECERRGLSSPNELQAAIDSNRREGRRQSFGGSLFAYSPSGAHSMLPSPKLPVTPLGLAASTNGSSITPAPKIKKEEDSAIPITVPGRLPVSLAGHPVVAAQAAAVQAAAAQAAVAAQAAALEQLREKLESTEPPEKKMALVADEQQRLMQRAVQQSFLAMTAQLPMNIRINSQASESRQDSAVSLTSANGSNSISMSVEMNGIVYTGVLFAQPPPPTAPSAPGKGGVSSIGTNTTTGSRTGASGSTVSGGQVGLPGVSTPTMSSTSNNSLP
modifications: full-length

Tested on: intracellular proteome of ENR+CD and ENR organoids
Test: LC-MS/MS TMT proteomics of ENR+CD versus ENR organoids
Type: cell-based, C57BL/6 mice
Conditions: ENR+CD versus ENR organoids, sample pairs in aggregate (n=4, 2 technical replicates from two biological donors)

Molecule | Average logFC
B1 | 1.157
B2 | 1.459
B3 | 1.308
B4 | −1.21
B5 | −1.133
B6 | −1.573
B7 | 1.185
B8 | 1.251

Same assay, conditions: protein abundance ratio ENR+CD versus ENR organoids, sample pair M1-1; LC-MS/MS TMT proteomics

Molecule | M1-1 Log2 Median Normalized
B1 | 0.73
B2 | 1.46
B3 | 1.563
B4 | −1.21
B5 | −0.83
B6 | −1.603
B7 | 1.037
B8 | 1.672

Same assay, conditions: protein abundance ratio ENR+CD versus ENR organoids, sample pair M1-2; LC-MS/MS TMT proteomics

Molecule | M1-2 Log2 Median Normalized
B1 | 0.722
B2 | 1.066
B3 | 2.15
B4 | −1.557
B5 | −1.694
B6 | −2.001
B7 | 1.294
B8 | 1.343

Same assay, conditions: protein abundance ratio ENR+CD versus ENR organoids, sample pair M2-1; LC-MS/MS TMT proteomics

Molecule | M2-1 Log2 Median Normalized
B1 | 1.3705
B2 | 1.4225
B3 | 1.0245
B4 | −1.2065
B5 | 1.3345
B6 | −1.5715
B7 | 0.4235
B8 | 1.2465

Same assay, conditions: protein abundance ratio ENR+CD versus ENR organoids, sample pair M2-2; LC-MS/MS TMT proteomics

Molecule | M2-2 Log2 Median Normalized
B1 | 1.805
B2 | 2.251
B3 | 0.494
B4 | −1.062
B5 | −0.675
B6 | −0.844
B7 | 1.984
B8 | 0.741

Same assay, conditions: up = enriched in ENR+CD, down = enriched in ENR; FDR<0.05 and log fold change cut-off

Molecule | change
B1 | up
B2 | up
B3 | up
B4 | down
B5 | down
B6 | down
B7 | up
B8 | up
